B1: tRNA N6-adenosine threonylcarbamoyltransferase (Saccharomyces cerevisiae), P36132 (parent)
chain: MVNLNTIPPKNGRDYYIALGLEGSANKLGVGIVKHPLLPKHANSDLSYDCEAEMLSNIRDTYVTPPGEGFLPRDTARHHRNWCIRLIKQALAEADIKSPTLDIDVICFTKGPGMGAPLHSVVIAARTCSLLWDVPLVGVNHCIGHIEMGREITKAQNPVVLYVSGGNTQVIAYSEKRYRIFGETLDIAIGNCLDRFARTLKIPNEPSPGYNIEQLAKKAPHKENLVELPYTVKGMDLSMSGILASIDLLAKDLFKGNKKNKILFDKTTGEQKVTVEDLCYSLQENLFAMLVEITERAMAHVNSNQVLIVGGVGCNVRLQEMMAQMCKDRANGQVHATDNRFCIDNGVMIAQAGLLEYRMGGIVKDFSETVVTQKFRTDEVYAAWRD
B2: EKC/KEOPS complex subunit BUD32 (Saccharomyces cerevisiae), P53323 (parent)
chain: MTQEFIDKVSSYLTPDVDIAPISQGAEAIVFTTTTHPYLPRAKDSHQKYIIKYRPPKRYRHPQIDQALTKHRTLNESRLLAKLYLIPGLCVPQLIACDPYNGFIWLEFLGEDLPGGHGFSNLKNFLWMHDQDPYSDLVATTLRKVGRQIGLLHWNDYCHGDLTSSNIVLVRDGARWTPHLIDFGLGSVSNLVEDKGVDLYVLERAILSTHSKHAEKYNAWIMEGFEEVYREQGAKGAKKLKEVTKRFEEVRLRGRKRSMLG
partner: B1 chain
B3: EKC/KEOPS complex subunit BUD32 (Saccharomyces cerevisiae), P53323 (parent)
chain: B2 chain
partner: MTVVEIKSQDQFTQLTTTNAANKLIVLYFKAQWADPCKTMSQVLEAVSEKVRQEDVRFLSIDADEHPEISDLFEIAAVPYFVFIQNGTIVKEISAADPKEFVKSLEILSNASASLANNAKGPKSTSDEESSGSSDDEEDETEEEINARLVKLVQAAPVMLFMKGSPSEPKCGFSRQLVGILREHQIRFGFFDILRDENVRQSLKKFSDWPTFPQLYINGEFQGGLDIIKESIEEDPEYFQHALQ

Variants of: B1
Conditions: with bud32_yeast BUD32, P53323

| Variant | effect of a mutation on the interaction |
| --- | --- |
| E292R | disrupting interaction |
| E295R | disrupting interaction |

Variants of: B1
Conditions: with bud32_yeast BUD32, P53323
Remark: another data set of the same source

| Variant | effect of a mutation on the interaction |
| --- | --- |
| D236R | decreasing interaction |

Variants of: B2
Conditions: with kae1_yeast KAE1, P36132

| Variant | effect of a mutation on the interaction |
| --- | --- |
| R60E | disrupting interaction |

Variants of: B2
Conditions: with kae1_yeast KAE1, P36132
Remark: another data set of the same source

| Variant | effect of a mutation on the interaction |
| --- | --- |
| R72E | decreasing interaction |

Variants of: B2
Conditions: with kae1_yeast KAE1, P36132
Remark: another data set of the same source

| Variant | effect of a mutation on the interaction |
| --- | --- |
| K57E | disrupting interaction |

Variants of: B2
Conditions: with kae1_yeast KAE1, P36132
Remark: another data set of the same source

| Variant | effect of a mutation on the interaction |
| --- | --- |
| Y59E | disrupting interaction |

Variants of: B3
Conditions: with glrx4_yeast GRX4, P32642

| Variant | effect of a mutation on the interaction |
| --- | --- |
| D161A | disrupting interaction |

— IntAct's records for PubMed 19172740
